Data from article PMC6981440 (International Journal of Molecular Sciences, 2019).

Tests used:
[1] = target: mouse anti-GM1 IgG2b(κ) antibody GB2 (mouse); experiment: high-speed atomic force microscopy; antibody at 10 μg/mL in phosphate-buffered saline, 3 min on a mica-supported DOPC bilayer with GM1 (rings at >25% GM1; 50% GM1 in Figure 4), unbound antibody washed off; room temperature
[2] = target: the molecule itself; experiment: crystal structure; apo Fc of GB2; 16% PEG3350, 0.2 M lithium chloride, 0.1 M Bis-Tris pH 6.5, 20 °C; P2(1)2(1)2(1), three Fc dimers per asymmetric unit, 2.30 Å

Molecule | stoichiometry N [1] | stoichiometry N [2]
mouse anti-GM1 IgG2b(κ) antibody GB2 | 6 | –
Fc fragment of GB2 (mouse IgG2b-Fc, apo form) (domain or fragment, Fc fragment of the mouse IgG2b heavy chain of GB2, cut by papain; Fc dimer; three Fc dimers per asymmetric unit in the crystal; also called apo Fc; source: papain digestion of GB2 from mouse hybridoma, purified (Affi-gel protein A column)) CPAPNLEGGPSVFIFPPNIKDVLMISLTPKVTCVVVDVSEDDPDVQISWFVNNVEVHTAQTQTHREDYNSTIRVVSTLPIQHQDWMSGKEFKCKVNNKDLPSPIERTISKIKGLVRAPQVYILPPPAEQLSRKDVSLTCLVVGFNPGDISVEWTSNGHTEENYKDTAPVLDSDGSYFIYSKLNMKTSKWEKTDSFSCNVRHEGLKNYYLKKTISRSPG | – | 3
